{"source": "patent US20100209426A1", "about": "“INHIBITORS OF PROGASTRIN-INDUCED REPRESSION OF ICAT FOR TREATING AND/OR PREVENTING COLORECTAL CANCER, ADENOMATOUS POLYPOSIS OR METASTASIS DISPLAYING PROGASTRIN-SECRETING CELLS AND CELLS IN WHICH THE BETA-CATENIN/TCF-MEDIATED TRANSCRIPTIONAL PATHWAY IS CONSTITUTIVELY ACTIVE” (INSERM (INSTITUT NATIONAL DE LA SANTE ET DE LA REC HERCHE …, priority 2006, published 2010)", "key": {"[1]": {"system": "β-catenin/Tcf-4 transcriptional activity", "assay": "TOP/FOP Luciferase reporter gene assay in SW480 cells", "type": "cell-based", "method": "The protocol used to measure the transcriptional activity of TCF/LEF-1 was described before (Morin et al., 1997). Briefly, cells were transfected with 500 ng of TCF/LEF-1 reporter (pTOP-FLASH), or control vector (pFOP-FLASH) and with 25 ng pCMV-Renilla. Luciferase activity was quantified using the Dual luciferase reporter assay system (Promega), and was normalized relative to the activity of Renilla."}, "[2]": {"system": "ICAT", "assay": "ICAT expression in SW480 cells (RT-QPCR, immunoblotting)", "type": "cell-based, human", "method": "(§1) 2.5 μg of total RNA was pretreated with DNAse RQ1 (Promega) for 30 min at 37° C. and used for reverse transcription with M-MLV reverse transcriptase (In vitrogen). Quantitative PCR was carried out using the LightCycler FastStart DNA MasterPlus SYBR Green I kit (Roche Diagnostics, Meylan, France), under the following conditions: Actin: denaturation during 10 min at 95° C., amplification for 50 cycles: 10 sec at 95° C., 6 sec at 58° C., 11 sec at 72° C. Melting curve: 0 sec at 95° C., 30 sec at 68° C., 0 sec at 95° C. and cooling was for 2 min at 40° C.: c-myc, ILK, chromogranin A and GAPDH amplification: denaturation during 10 min at 95° C., amplification for 50 cycles: 10 sec at 70° C., 6 sec at 58° C., 13 sec at 72° C. The melting curve was 0 sec at 95° C., 30 sec at 80° C., 0 sec at 95° C. and cooling was for 2 min at 40° C. Progastrin, Muc-2, ALP and ICAT amplification: denaturation during 10 min at 95° C., amplification during 50 cycles with: 10 sec at 70° C., 6 sec at 95° C., 11 sec at 72° C. The melting curve was 0 sec at 95° C., 30 sec at 80° C., 0 sec at 70° C. and cooling was for 2 min at 40° C. […]\n(§2) Protein lysates, immunoprecipitations and immunoblotting were performed as described before (Hollande et al., 2003) Proteins were visualized using ECL Plus (Amersham Biosciences) and the bands were quantified by densitometry using ImageJ 1.32J (NIH, Bethesda, Md.)."}, "[3]": {"system": "SW480 cells", "assay": "Differentiation and apoptosis of SW480 cells after transient siRNA transfection", "type": "cell-based, human", "method": "The day before transfection, SW480 cells were seeded in 24-well plates (5×10^4 cells/well). Cells were transfected with 100 pmol of rhodamine tagged GAS-specific or β-galactosidase-specific […], and 5 μl/well of Exgen 500 (Euromedex), according to the manufacturer's instructions. 48 hr or 72 hr after transfection, cells were lysed (for immunoblotting and PCR) or fixed in 1% paraformaldehyde for immunostaining.\n2.5 μg of total RNA was pretreated with DNAse RQ1 (Promega) for 30 min at 37° C. and used for reverse transcription with M-MLV reverse transcriptase (In vitrogen). Quantitative PCR was carried out using the LightCycler FastStart DNA MasterPlus SYBR Green I kit (Roche Diagnostics, Meylan, France), under the following conditions: Actin: denaturation during 10 min at 95° C., amplification for 50 cycles: 10 sec at 95° C., 6 sec at 58° C., 11 sec at 72° C. Melting curve: 0 sec at 95° C., 30 sec at 68° C., 0 sec at 95° C. and cooling was for 2 min at 40° C.: c-myc, ILK, chromogranin A and GAPDH amplification: denaturation during 10 min at 95° C., amplification for 50 cycles: 10 sec at 70° C., 6 sec at 58° C., 13 sec at 72° C. The melting curve was 0 sec at 95° C., 30 sec at 80° C., 0 sec at 95° C. and cooling was for 2 min at 40° C. Progastrin, Muc-2, ALP and ICAT amplification: denaturation during 10 min at 95° C., amplification during 50 cycles with: 10 sec at 70° C., 6 sec at 95° C., 11 sec at 72° C. The melting curve was 0 sec at 95° C., 30 sec at 80° C., 0 sec at 70° C. and cooling was for 2 min at 40° C. Primers used for amplification of selected genes were: GAPDH-sense: 5′[…]3′ (SEQ ID No 9) antisense: 5′[…]3′ (SEQ ID No 10); Actin-sense: 5′[…]3′ (SEQ ID No 11); antisense: 5′[…]3′ (SEQ ID No 12); ILK-sense: 5′[…]3′ (SEQ ID No 13); antisense: 5′ […]3′ (SEQ ID No 14); ICAT-sense: 5′[…]3′ (SEQ ID No 15); antisense: 5′[…]3′ (SEQ ID No 16); c-myc-sense: 5′[…]3′ (SEQ ID No 17); antisense: 5′[…]3′ (SEQ ID No 18); human progastrin-sense: 5′[…]3′ (SEQ ID No 19); antisense: 5′[…]3′ (SEQ ID No 20); Muc-2-sense: 5′[…]3′ (SEQ ID No 21); antisense: 5′[…]3′ (SEQ ID No 22); Alkaline Phosphatase-sense: 5′[…]3′ (SEQ ID No 23); antisense: 5′[…]3′ (SEQ ID No 24); Chromogranin A-sense: 5′[…]3′ (SEQ ID No 25); antisense: 5′[…]3′ (SEQ ID No 26).\n(§3) Immunofluorescent staining was performed as described previously (Hollande et al., 2003) Slides were then observed using a laser scanning LEICA sp2 confocal microscope with a x40 oil immersion lens."}, "[4]": {"system": "Akt/PKB", "assay": "Ser473 phosphorylation of Akt/PKB in SW480 cells (Western blotting)", "type": "cell-based, human", "conditions": "SW480/GAST(−) cells, 5 nM recombinant progastrin", "method": "as §2"}, "[5]": {"system": "ILK", "assay": "ILK expression and immune complex kinase assay in SW480 cells", "type": "cell-based, human", "conditions": "SW480/GAST(−) cells, 5 nM recombinant progastrin", "method": "as §2\nThe reaction was started by the addition of 25 μl of kinase buffer (50 mM Hepes pH 7.0, 1 mM MnCl2, 1 mM Na orthovanadate, 2 mM NaF, 5 μg Myelin Basic Protein (Sigma)) with 0.5 μg of ATP ([…], 1 μCi[γ-^32P]ATP) per tube, and incubated at 30° C. for 20 min. The reaction was terminated with the addition of 10 μl of 4× sample buffer. The tubes were centrifuged at 10,000 g for 1 min and the proteins were resolved on a 14% SDS-page gel. Phosphorylation of the substrate was visualized by autoradiography (Marotta et al., 2003)."}, "[6]": {"system": "β-catenin/Tcf-4 and β-catenin/ICAT association", "assay": "Co-immunoprecipitation of dephosphorylated β-catenin with Tcf-4 and ICAT in SW480 cells", "type": "cell-based, human", "conditions": "SW480/GAST(−) cells treated with recombinant progastrin", "method": "as §2"}, "[7]": {"system": "nuclear compartmentation of β-catenin and Tcf-4", "assay": "Immunofluorescent staining of β-catenin and Tcf-4 in SW480 cells", "type": "cell-based, human", "conditions": "SW480/GAST(−) cells, 5 nM recombinant progastrin", "method": "as §3"}, "[8]": {"system": "Tcf-4 target genes (c-myc, cyclin D1, Sox-9 and claudin-1)", "assay": "Expression of Tcf-4 target genes in SW480/GAST(−) cells", "type": "cell-based, human", "conditions": "progastrin-depleted SW480/GAST(−) cells, treatment with the recombinant peptide (5 nM, 72 h)", "method": "as §1, §2"}, "[9]": {"system": "SW480 cells", "assay": "Tumor formation of SW480 cells injected subcutaneously in BALB/c nude mice", "type": "in vivo, mouse", "conditions": "SW480/GAST(−) cells stably expressing shRNA, subcutaneous injection in Balbc/nude mice, within 7 weeks, versus SW480/βgal(−)", "description": "Transfection of gastrin gene antisense and control cDNA into DLD1 cell lines was described in (Hollande et al., 2003). In order to generate progastrin shRNA, the following oligonucleotides were cloned into pSilencer vector (Ambion) and transfected in SW480 cells: sense: 5′-[…] TT-3′ (SEQ ID No 1) and antisense: 5′-[…] 3′ (SEQ ID No 2). β-galactosidase oligonucleotides used to generate control shRNA were: sense: 5′ […] 3′ (SEQ ID No 3); antisense 5′[…] 3′ (SEQ ID No 4). 5×10^4 cells/well were seeded and transfected 24 h later with 500 ng of pSilencer/progastrin-shRNA or pSilencer/β-galactosidase-shRNA, 50 ng of pcDNA-3, and 5 μl/well of Exgen 500 (Euromedex). Selection was performed with Neomycin (500 ng/μl).\nIn vivo experiments were performed following the French guidelines for experimental animal studies (Direction des Services Vétérinaires, Ministére de l'Agriculture, Agreement N^oB34-172-27) and fulfill the UKCCCR guidelines for the welfare of animals in experimental neoplasia. 2×10^6 cells were injected subcutaneously into 6-weeks-old athymic BALB/c-nu/nu (nude) mice. Tumor growth was followed regularly thereafter (Estimated tumor volume=(Length×width×thickness)/2)."}, "[10]": {"conditions": "treatment of CRC cells with short gastrin forms or CCK-B receptor antagonist (FIG. S2)"}, "[11]": {"conditions": "amidated and glycine-extended gastrins"}, "[12]": {"conditions": "transient transfection with siRNA"}}, "note": "Where no end group is shown, it is not given here.", "data": [{"molecule": "CC(C)(C)n1nc(-c2ccc(Cl)cc2)c2c(N)ncnc21", "note": "[PP2]", "values": [{"measurement": "β-catenin/Tcf-4 activity", "setting": "[1]; SW480 cells, 10 μM PP2 (Src pathway inhibition)", "value": "did not affect"}, {"measurement": "ICAT expression", "setting": "[2]; SW480 cells, 10 μM PP2", "value": "did not affect"}]}, {"molecule": "COc1cccc(-c2cc(=O)c3ccccc3o2)c1N", "note": "[PD98059]", "values": [{"measurement": "β-catenin/Tcf-4 activity", "setting": "[1]; SW480 cells, 1 μM PD98059 (ERK1/2 pathway inhibition)", "value": "did not affect"}, {"measurement": "ICAT expression", "setting": "[2]; SW480 cells, 1 μM PD98059", "value": "did not affect"}]}, {"molecule": "amidated gastrin17: COOH terminally amidated gastrin, maturation product of progastrin (QGPWLEEEEEAYGWMDF-NH2; ends and bridges not checked) [reference compound]", "values": [{"measurement": "β-catenin/Tcf-4 activity", "setting": "[1]; [10]", "value": "did not affect"}, {"measurement": "differentiation and apoptosis phenotypes of GAST siRNA-transfected cells", "setting": "[3]; [11]", "value": "had no effect"}]}, {"molecule": "GAST-specific siRNA oligonucleotides: rhodamine-tagged siRNA directed against the human GAST gene; siRNAs hPG sense 5′-GAAGAAGCCUAUGGAUGGATT-3′ (SEQ ID No 27), antisense SEQ ID No 28 (antisense UCCAUCCAUAGGCUUCUUCTT; rhodamine-tagged siRNA, tag position not given here)", "values": [{"measurement": "caspase-3 activation", "setting": "[3]; [12]", "value": "detection of caspase-3 activation"}, {"measurement": "expression of genes encoding chromogranin A or enterocyte-specific alkaline phosphatase", "setting": "[3]; [12]", "value": "without detectable alterations"}, {"measurement": "expression of the goblet cell-specific gene Muc-2", "setting": "[3]; transient transfection with siRNA, versus β-galactosidase siRNA", "value": "significant induction"}]}, {"molecule": "Cc1cccc(NC(=O)N[C@@H]2N=C(c3ccccc3)c3ccccc3N(C)C2=O)c1", "note": "[L365, 260]", "values": [{"measurement": "β-catenin/Tcf-4 activity", "setting": "[1]; [10]", "value": "did not affect"}]}, {"molecule": "recombinant progastrin: full-length progastrin (1-80) prohormone encoded by the GAST gene; recombinant peptide or secreted by CRC cells (protein) SWKPRSQQPDAPLGTGANRDLELPWLEQQGPASHHRRQLGPQGPPHLVADPSKKQGPWLEEEEEAYGWMDFGRRSAEDEN", "values": [{"measurement": "β-catenin/Tcf-4 transcriptional activity (TOP/FOP luciferase reporter)", "setting": "[1]; SW480/GAST(−) clones, 5 nM recombinant progastrin, 72 h", "value": "restore a strong level of transcription"}, {"measurement": "serine 473-phosphorylation of Akt/PKB", "setting": "[4]", "value": "reinstated"}, {"measurement": "differentiation and apoptosis phenotypes of GAST siRNA-transfected cells", "setting": "[3]; recombinant progastrin for 48 h", "value": "reversed"}, {"measurement": "decrease of expression and activity of ILK", "setting": "[5]", "value": "partially reversed"}, {"measurement": "ICAT expression", "setting": "[2]; SW480/GAST(−) cells, 5 nM recombinant progastrin", "value": "De novo repression"}, {"measurement": "binding partner of β-catenin (Tcf-4 versus ICAT)", "setting": "[6]", "value": "preferentially bound to Tcf-4"}, {"measurement": "nuclear compartmentation of β-catenin and Tcf-4", "setting": "[7]", "value": "partially restored"}, {"measurement": "expression of Tcf-4 target genes (c-myc, cyclin D1, Sox-9 and claudin-1)", "setting": "[8]", "value": "significantly stimulated"}]}, {"molecule": "glycine-extended gastrin17: glycine-extended gastrin, one of the products of progastrin maturation (peptide) peptide: SWKPRSQQPDAPLGTGANRDLELPWLEQQGPASHHRRQLGPQGPPHLVADPSKKQGPWLEEEEEAYGWMDFGRRSAEDEN", "values": [{"measurement": "β-catenin/Tcf-4 activity", "setting": "[1]; [10]", "value": "did not affect"}, {"measurement": "differentiation and apoptosis phenotypes of GAST siRNA-transfected cells", "setting": "[3]; [11]", "value": "had no effect"}]}, {"molecule": "short hairpin RNA (shRNA), directed against the GAST gene: progastrin shRNA, oligonucleotides SEQ ID No 1 and SEQ ID No 2 cloned into pSilencer vector, stably expressed in SW480 cells (nucleic acid) DNA 1: GAAGAAGCCTATGGATGGATTCAAGAGAAGGTAGGTATCCGAAGAAGTTTTTT DNA 2: AATTAAAAAACTTCTTCGGATACCTACCTTCTCTTGAATCCATCCATAGGCTTCTTCGGCC", "values": [{"measurement": "ability to form tumors", "setting": "[9]", "value": "greatly reduced"}]}]}
